Assay results reported in the supplement of paper PMC9428881.
± gives the standard error.

Test: background-corrected fluorescence of 3'-dye-labeled ssDNA relative to brightest sequence (3'-GCGCG) (fraction); higher = brighter dye fluorescence (less quenching)
In short: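 Each of 1024 permuted pentamers was synthesized as single-stranded DNA on glass slides by light-directed phosphoramidite chemistry, with a 3' Cy3 or Cy5 dye alongside. Arrays were scanned at 532 or 635 nm before and after overnight deprotection with ethylenediamine/ethanol. Values average 10 features per array across at least 3 syntheses. The fluorescence readout, with unlabeled-oligo background removed, is given relative to the brightest sequence.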

## TTTTTTCATGCGCATCATCATTTTTTTTTTTTTTTGATGG [GGTAG]
dye: Cy3 (3' terminal)
  background-corrected fluorescence: 0.62 ± 0.012
dye: Cy5 (3' terminal)
  background-corrected fluorescence: 0.482 ± 0.024

## TTTTTGCATCATCAGCATGATTTTTTTTTTTTTTTTGGTC [CTGGT]
dye: Cy3 (3' terminal)
  background-corrected fluorescence: 0.478 ± 0.024
dye: Cy5 (3' terminal)
  background-corrected fluorescence: 0.387 ± 0.04

## TTTTTTCAGCAGCATCATGATTTTTTTTTTTTTTTGTTGC [CGTTG]
dye: Cy3 (3' terminal)
  background-corrected fluorescence: 0.53 ± 0.024
dye: Cy5 (3' terminal)
  background-corrected fluorescence: 0.389 ± 0.025

## TTTTTTCATGCGCAGCATGCTTTTTTTTTTTTTTTGATTA [ATTAG]
dye: Cy3 (3' terminal)
  background-corrected fluorescence: 0.547 ± 0.022
dye: Cy5 (3' terminal)
  background-corrected fluorescence: 0.424 ± 0.034

## TTTTTTGCTCATCAGCATCATTTTTTTTTTTTTTTAGGTG [GTGGA]
dye: Cy3 (3' terminal)
  background-corrected fluorescence: 0.585 ± 0.025
dye: Cy5 (3' terminal)
  background-corrected fluorescence: 0.482 ± 0.017

## TTTTTTGCTCAGCATGATCATTTTTTTTTTTTTTTAGTCG [GCTGA]
dye: Cy3 (3' terminal)
  background-corrected fluorescence: 0.579 ± 0.024
dye: Cy5 (3' terminal)
  background-corrected fluorescence: 0.444 ± 0.036

## TTTTTTGATCATCATGCTCATTTTTTTTTTTTTTTCGGAG [GAGGC]
dye: Cy3 (3' terminal)
  background-corrected fluorescence: 0.603 ± 0.02
dye: Cy5 (3' terminal)
  background-corrected fluorescence: 0.487 ± 0.024

## TTTTTGCATCATGCTGCTGATTTTTTTTTTTTTTTTGAAC [CAAGT]
dye: Cy3 (3' terminal)
  background-corrected fluorescence: 0.461 ± 0.024
dye: Cy5 (3' terminal)
  background-corrected fluorescence: 0.345 ± 0.021

## TTTTTTCAGCAGCATCATCATTTTTTTTTTTTTTTGTTGG [GGTTG]
dye: Cy3 (3' terminal)
  background-corrected fluorescence: 0.582 ± 0.0069
dye: Cy5 (3' terminal)
  background-corrected fluorescence: 0.471 ± 0.028

## TTTTTTGCTGCTGCTGATGATTTTTTTTTTTTTTTAAACC [CCAAA]
dye: Cy3 (3' terminal)
  background-corrected fluorescence: 0.403 ± 0.035
dye: Cy5 (3' terminal)
  background-corrected fluorescence: 0.29 ± 0.015

## TTTTTGCAGCATCATGCTCATTTTTTTTTTTTTTTTTGAG [GAGTT]
dye: Cy3 (3' terminal)
  background-corrected fluorescence: 0.542 ± 0.0086
dye: Cy5 (3' terminal)
  background-corrected fluorescence: 0.429 ± 0.016

## TTTTTGCATCATGCTGAGCATTTTTTTTTTTTTTTTGACT [TCAGT]
dye: Cy3 (3' terminal)
  background-corrected fluorescence: 0.473 ± 0.034
dye: Cy5 (3' terminal)
  background-corrected fluorescence: 0.357 ± 0.022

## TTTTTGCATGATCATCAGCATTTTTTTTTTTTTTTTCGGT [TGGCT]
dye: Cy3 (3' terminal)
  background-corrected fluorescence: 0.66 ± 0.028
dye: Cy5 (3' terminal)
  background-corrected fluorescence: 0.513 ± 0.035

## TTTTTTCATGCTGCTGATGCTTTTTTTTTTTTTTTGAACA [ACAAG]
dye: Cy3 (3' terminal)
  background-corrected fluorescence: 0.505 ± 0.013
dye: Cy5 (3' terminal)
  background-corrected fluorescence: 0.394 ± 0.024

## TTTTTGCATGCTGATCATGATTTTTTTTTTTTTTTTACGC [CGCAT]
dye: Cy3 (3' terminal)
  background-corrected fluorescence: 0.523 ± 0.0065
dye: Cy5 (3' terminal)
  background-corrected fluorescence: 0.439 ± 0.032

## TTTTTGCATGATGATGATGCTTTTTTTTTTTTTTTTCCCA [ACCCT]
dye: Cy3 (3' terminal)
  background-corrected fluorescence: 0.441 ± 0.036
dye: Cy5 (3' terminal)
  background-corrected fluorescence: 0.346 ± 0.035

## TTTTTTCATGATGATCAGCATTTTTTTTTTTTTTTGCCGT
dye: Cy3 (3' terminal)
  background-corrected fluorescence: 0.651 ± 0.025
dye: Cy5 (3' terminal)
  background-corrected fluorescence: 0.487 ± 0.022

## TTTTTGCATCATGATCATGATTTTTTTTTTTTTTTTGCGC [CGCGT]
dye: Cy3 (3' terminal)
  background-corrected fluorescence: 0.596 ± 0.02
dye: Cy5 (3' terminal)
  background-corrected fluorescence: 0.48 ± 0.034

## TTTTTGCATCATCATCAGCATTTTTTTTTTTTTTTTGGGT
dye: Cy3 (3' terminal)
  background-corrected fluorescence: 0.686 ± 0.028
dye: Cy5 (3' terminal)
  background-corrected fluorescence: 0.586 ± 0.044

## TTTTTGCATGATGCGCATGATTTTTTTTTTTTTTTTCATC [CTACT]
dye: Cy3 (3' terminal)
  background-corrected fluorescence: 0.406 ± 0.0046
dye: Cy5 (3' terminal)
  background-corrected fluorescence: 0.305 ± 0.028

## TTTTTTGCGCATGATGCTGCTTTTTTTTTTTTTTTATCAA [AACTA]
dye: Cy3 (3' terminal)
  background-corrected fluorescence: 0.522 ± 0.012
dye: Cy5 (3' terminal)
  background-corrected fluorescence: 0.411 ± 0.035

## TTTTTGCATCATGATCAGCATTTTTTTTTTTTTTTTGCGT
dye: Cy3 (3' terminal)
  background-corrected fluorescence: 0.6597 ± 0.003
dye: Cy5 (3' terminal)
  background-corrected fluorescence: 0.516 ± 0.061

## TTTTTGCATGCGCATCATGATTTTTTTTTTTTTTTTATGC [CGTAT]
dye: Cy3 (3' terminal)
  background-corrected fluorescence: 0.5 ± 0.026
dye: Cy5 (3' terminal)
  background-corrected fluorescence: 0.377 ± 0.024

## TTTTTTGCTGAGCAGCATGATTTTTTTTTTTTTTTACTTC [CTTCA]
dye: Cy3 (3' terminal)
  background-corrected fluorescence: 0.405 ± 0.022
dye: Cy5 (3' terminal)
  background-corrected fluorescence: 0.312 ± 0.027

## TTTTTGCATGAGCATCAGCATTTTTTTTTTTTTTTTCTGT [TGTCT]
dye: Cy3 (3' terminal)
  background-corrected fluorescence: 0.594 ± 0.015
dye: Cy5 (3' terminal)
  background-corrected fluorescence: 0.433 ± 0.02

## TTTTTTGCTGATGAGCATGATTTTTTTTTTTTTTTACCTC [CTCCA]
dye: Cy3 (3' terminal)
  background-corrected fluorescence: 0.438 ± 0.0039
dye: Cy5 (3' terminal)
  background-corrected fluorescence: 0.271 ± 0.016

## TTTTTTGATGATCATGATCATTTTTTTTTTTTTTTCCGCG [GCGCC]
dye: Cy3 (3' terminal)
  background-corrected fluorescence: 0.961 ± 0.026
dye: Cy5 (3' terminal)
  background-corrected fluorescence: 0.944 ± 0.034

## TTTTTTGCTGCTCAGCAGCATTTTTTTTTTTTTTTAAGTT [TTGAA]
dye: Cy3 (3' terminal)
  background-corrected fluorescence: 0.609 ± 0.021
dye: Cy5 (3' terminal)
  background-corrected fluorescence: 0.433 ± 0.024

## TTTTTGCATCATCAGCATCATTTTTTTTTTTTTTTTGGTG [GTGGT]
dye: Cy3 (3' terminal)
  background-corrected fluorescence: 0.568 ± 0.028
dye: Cy5 (3' terminal)
  background-corrected fluorescence: 0.456 ± 0.022

## TTTTTTCAGCATGCTGATGATTTTTTTTTTTTTTTGTACC [CCATG]
dye: Cy3 (3' terminal)
  background-corrected fluorescence: 0.434 ± 0.028
dye: Cy5 (3' terminal)
  background-corrected fluorescence: 0.311 ± 0.017

## TTTTTTGATGCTGATCATCATTTTTTTTTTTTTTTCACGG [GGCAC]
dye: Cy3 (3' terminal)
  background-corrected fluorescence: 0.584 ± 0.023
dye: Cy5 (3' terminal)
  background-corrected fluorescence: 0.525 ± 0.03

## TTTTTTGCTGATCATGCTGCTTTTTTTTTTTTTTTACGAA [AAGCA]
dye: Cy3 (3' terminal)
  background-corrected fluorescence: 0.575 ± 0.032
dye: Cy5 (3' terminal)
  background-corrected fluorescence: 0.452 ± 0.026

## TTTTTTGCTGATCATGAGCATTTTTTTTTTTTTTTACGCT [TCGCA]
dye: Cy3 (3' terminal)
  background-corrected fluorescence: 0.5 ± 0.065
dye: Cy5 (3' terminal)
  background-corrected fluorescence: 0.391 ± 0.029

## TTTTTTGATGAGCATCAGCATTTTTTTTTTTTTTTCCTGT [TGTCC]
dye: Cy3 (3' terminal)
  background-corrected fluorescence: 0.584 ± 0.0059
dye: Cy5 (3' terminal)
  background-corrected fluorescence: 0.459 ± 0.038

## TTTTTTCATCATGATGATGCTTTTTTTTTTTTTTTGGCCA [ACCGG]
dye: Cy3 (3' terminal)
  background-corrected fluorescence: 0.518 ± 0.025
dye: Cy5 (3' terminal)
  background-corrected fluorescence: 0.425 ± 0.025
